Assay results: publication PMC3962490, “The Yeast Ess1 Prolyl Isomerase Controls Swi6 and Whi5 Nuclear Localization” (G3: Genes|Genomes|Genetics, 2014)
Non-standard residues stand in square brackets, D forms with d. No end group written: not given here. *: point of attachment. Biotin = O=C1N[C@H]2[C@H](CS[C@H]2CCCCC(=O)*)N1; pS = N[C@@H](COP(=O)(O)O)C(=O)O

B1: Swi6-NLS peptide (unphosphorylated) (peptide)
peptide: Biotin-GGSGGSRELGSPLKK
notes: flexible linker ([Gly-Gly-Ser]2); source: synthetic peptide (NEOBioLab), HPLC purified >95%
B2: CTD peptide (unphosphorylated) (peptide)
peptide: Biotin-GGSGGSYSPTSPSYS
notes: flexible linker ([Gly-Gly-Ser]2); based on the consensus heptapeptide repeat in the carboxy-terminal domain (CTD) of Rpb1, largest subunit of RNA polymerase II; also called unphosphorylated CTD peptide; unphosphorylated CTD control peptide; source: synthetic peptide (NEOBioLab), HPLC purified >95%
B3: Whi5-NES peptide (unphosphorylated) (peptide)
peptide: Biotin-GGSGGFLSPSPRLRSPPT
notes: flexible linker; Whi5, S. cerevisiae, residues 152-164 (portion of the nuclear export signal); source: synthetic peptide (NEOBioLab), HPLC purified >95%
B4: Whi5-NES-P peptide (peptide)
peptide: Biotin-GGSGGFL[pS]P[pS]PRLR[pS]PPT
notes: flexible linker; Whi5, S. cerevisiae, residues 152-164 (portion of the nuclear export signal); By the printed limits the phosphoserines are Ser154, Ser156 and Ser161; also called phosphorylated Whi5-NES peptide; Whi5 phospho-peptide; source: synthetic peptide (NEOBioLab), HPLC purified >95%
B5: Whi5-NLS peptide (unphosphorylated) (peptide)
peptide: Biotin-GGSGGTPSPPSPPGI
notes: flexible linker; source: synthetic peptide (NEOBioLab), HPLC purified >95%
B6: Whi5-NLS-P peptide (peptide)
peptide: Biotin-GGSGGTP[pS]PP[pS]PPGI
notes: flexible linker; By the printed limits the phosphoserines are Ser59 and Ser62; also called phosphorylated Whi5-NLS peptide; Whi5 phospho-peptide; source: synthetic peptide (NEOBioLab), HPLC purified >95%
B7: Recombinant S. cerevisiae Ess1 protein (enzyme, UniProt P22696 1-170, looked up)
chain: MPSDVASRTGLPTPWTVRYSKSKKREYFFNPETKHSQWEEPEGTNKDQLHKHLRDHPVRVRCLHILIKHKDSRRPASHRSENITISKQDATDELKTLITRLDDDSKTNSFEALAKERSDCSSYKRGGDLGWFGRGEMQPSFEDAAFQLKVGEVSDIVESGSGVHVIKRVG
notes: Ess1 peptidyl prolyl cis/trans isomerase, S. cerevisiae; also called purified Ess1 protein; Ess1 prolyl isomerase; source: Escherichia coli, purified as described (Li et al. 2005)
B8: Swi6-NLS-P peptide (peptide)
peptide: Biotin-GGSGGSRELG[pS]PLKK
notes: flexible linker ([Gly-Gly-Ser]2); By the printed limits the phosphoserine is Ser160; also called phosphorylated Swi6-NLS peptide; phospho-Swi6 peptide; source: synthetic peptide (NEOBioLab), HPLC purified >95%
B9: CTD-P peptide (phosphorylated peptide corresponding to the CTD of RNAPII) (peptide)
peptide: Biotin-GGSGGSYSPT[pS]PSYS
notes: flexible linker ([Gly-Gly-Ser]2); based on the consensus heptapeptide repeat in the carboxy-terminal domain (CTD) of Rpb1, largest subunit of RNA polymerase II; The phosphoserine is Ser5 of the heptad YSPTSPS; also called phospho-CTD peptide; phosphorylated CTD peptide; source: synthetic peptide (NEOBioLab), HPLC purified >95%

Columns and labels:
Experiment in all cases: BLI; Octet RED, 24°; N-terminally biotinylated peptides immobilised on streptavidin biosensors; Ess1 in solution (3, 10, 30 μM); 20 mM Tris-HCl pH 8.0, 1 mg/mL BSA; no-peptide sensor subtracted; apparent dissociation constants (Kapp) from kinetic and equilibrium data, considering only the predominant faster-dissociating signal; for unphosphorylated peptides Kapp estimated from the signal at 30 μM Ess1
Details in all cases: both partners purified
[1] = target: B7
Whi5-NES-P peptide = target: B4
[2] = target: B9
Swi6-NLS-P peptide = target: B8
Whi5-NLS-P peptide = target: B6
[3] = target: B7; remark: listed apart in the source

Binder: B1
- Kd [1]: > 100 µM

Binder: B2
- Kd [1]: > 300 µM

Binder: B3
- Kd [1]: > 1500 µM

Binder: B4
- Kd [1]: 2.19 µM

Binder: B5
- Kd [1]: > 25 µM

Binder: B6
- Kd [1]: 1.67 µM

Binder: B7
- KappEq (equilibrium) (Whi5-NES-P peptide): 1.13 ± 0.18 µM
- KappK (kinetic) (Whi5-NES-P peptide): 3.25 ± 0.7 µM
- KappEq (equilibrium) [2]: 1.65 ± 0.06 µM
- KappK (kinetic) [2]: 2.58 ± 0.65 µM
- KappEq (equilibrium) (Swi6-NLS-P peptide): 10.1 ± 5.1 µM
- KappK (kinetic) (Swi6-NLS-P peptide): 7.25 ± 4.63 µM
- KappEq (equilibrium) (Whi5-NLS-P peptide): 0.48 ± 0.46 µM
- KappK (kinetic) (Whi5-NLS-P peptide): 2.87 ± 0.82 µM

Binder: B8
- koff [3]: 0.254 s⁻¹
- Kd [1]: 8.67 µM

Binder: B9
- Kd [1]: 2.12 µM
